Assay results taken from patent US20050176933A1.

Target: GST-HAb18GE (a fusion of the extracellular domain of hepatoma-associated antigen HAb18G with GST) (human) (UniProt P35613)
Assay: indirect ELISA on coated GST-HAb18GE; positive control; mean ± S

UniProt P35613, sequence (P35613 138-325): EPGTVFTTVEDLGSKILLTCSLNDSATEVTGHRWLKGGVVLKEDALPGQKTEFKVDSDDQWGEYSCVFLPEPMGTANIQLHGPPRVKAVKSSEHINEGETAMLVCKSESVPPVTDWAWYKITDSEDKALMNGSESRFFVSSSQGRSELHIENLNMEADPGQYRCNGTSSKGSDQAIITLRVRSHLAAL

B1: murine anti-human hepatoma McAb HAb18 (antibody, mouse IgG1, V domains shown)
VH: EVKLEESGGGLVQPGGSMKLSCVASGFTFSDAWMDWVRQSPEKGLEWVAEIRSKANNHAPYYTESVKGRFTISRDDSKSIIYLQMNNLRAEDTGIYYCTRDSTATHWGQGTLVTVSS
VL: SIVMTQTPTFLVVSAGDRVTITCKASQSVINDVAWYQQKPGQSPKLLIFYASNRNTGVPDRFTGSGYGTDFTFTISTVQAEDLAVYFCQQDYSPPFTFGSGTKLEIK
modifications: HRP-labelled in the competitive ELISAs
An A450 (Indirect ELISA) of 1.02 A450 was found for B1 in this work.
